Assay results taken from patent US20230248855A1 (ACTINIUM PHARMACEUTICALS, published 2023).

Target: T1, human recombinant HER3 (human, UniProt P21860 20-643)
T1 construct: Plate-coated recombinant protein in the ELISA
Experiment: ELISA, plate coated with human recombinant HER3, anti-human IgG F(ab')2-HRP detection
Description: A secondary antibody (Goat Anti-human IgG F(ab′)20-HRP) was added and incubated for 30 min on ice followed by color development using […] for 10 min.

T1 sequence (P21860 20-643 limits assumed): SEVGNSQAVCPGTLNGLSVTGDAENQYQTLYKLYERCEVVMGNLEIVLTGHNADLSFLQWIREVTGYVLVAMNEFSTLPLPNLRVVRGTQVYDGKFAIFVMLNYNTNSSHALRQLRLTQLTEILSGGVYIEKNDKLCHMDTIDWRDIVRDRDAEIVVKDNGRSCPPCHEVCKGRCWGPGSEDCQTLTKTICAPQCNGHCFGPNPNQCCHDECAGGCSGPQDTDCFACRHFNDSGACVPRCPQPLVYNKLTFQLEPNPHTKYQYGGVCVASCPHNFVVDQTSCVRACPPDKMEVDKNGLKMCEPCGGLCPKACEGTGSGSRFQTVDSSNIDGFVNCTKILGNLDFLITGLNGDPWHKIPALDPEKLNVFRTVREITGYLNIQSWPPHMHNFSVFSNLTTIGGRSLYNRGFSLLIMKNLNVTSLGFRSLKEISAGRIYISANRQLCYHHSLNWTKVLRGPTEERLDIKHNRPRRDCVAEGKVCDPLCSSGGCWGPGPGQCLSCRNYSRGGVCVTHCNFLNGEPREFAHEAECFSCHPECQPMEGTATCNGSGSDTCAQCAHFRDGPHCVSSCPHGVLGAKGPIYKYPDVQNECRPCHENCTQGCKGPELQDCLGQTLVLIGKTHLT

B1: 225Ac-HER3-ARC (Ac225 labeled DOTA-conjugated anti-HER3 monoclonal antibody) (antibody, human IgG1, kappa, V domains shown)
VH: QVQLVESGGGLVKPGGSLRLSCAASGFTFSDYAMSWIRQAPGKGLEWVSTISDGGTYTYYPDSVKGRFTISRDNAKNSLYLQMNSLRAEDTAVYYCAREWGDYDGFDYWGQGTLVTVSS
VL: DIQMTQSPSSLSASVGDRVTITCRASQEISGYLSWYQQKPGKAPKRLIYAASTLDSGVPSRFSGSGSGTEFTLTISSLQPEDFATYYCLQYDSYPYTFGQGTKLEIKR
modifications: DOTA chelator conjugated using p-SCN-Bn-DOTA and chelating Actinium-225; sites and chain not stated
EC50: 1.7 ng/mL

B2: anti-HER3 IgG monoclonal antibody consisting of heavy chain SEQ ID NO:77 and light chain SEQ ID NO:78 (unmodified) (antibody, V domains shown)
VH: QVQLVESGGGLVKPGGSLRLSCAASGFTFSDYAMSWIRQAPGKGLEWVSTISDGGTYTYYPDSVKGRFTISRDNAKNSLYLQMNSLRAEDTAVYYCAREWGDYDGFDYWGQGTLVTVSS
VL: DIQMTQSPSSLSASVGDRVTITCRASQEISGYLSWYQQKPGKAPKRLIYAASTLDSGVPSRFSGSGSGTEFTLTISSLQPEDFATYYCLQYDSYPYTFGQGTKLEIKR
notes: IgG, detected with an anti-human IgG secondary antibody; also called unmodified anti-HER3 antibody; unmodified anti-HER3 mAb
EC50: 2.2 ng/mL
